pKd: −log10 of the molar value.
Key:
Test in all cases: FRET or BRET
[1] = biological target: ^NDD_(BaeN)+mTurquoise2 (Bacillus amyloliquefaciens FZB42 | not stated)
[2] = biological target: ^NDD_(DifG)+mTurquoise2 (Bacillus amyloliquefaciens FZB42 | not stated)
[3] = biological target: ^NDD_(MlnC)+mTurquoise2 (Bacillus amyloliquefaciens FZB42 | not stated)

Substance Venus+^CDD_(BaeM) has a pKd [1] of 5.13.

Substance Venus+^CDD_(DifF) has a pKd [2] of 5.20.

Venus+^CDD_(MlnB) showed a pKd [3] of 5.54.
